In the supplement of paper PMC10126150:
± gives the standard deviation of the averaged measurements.

Test system: ATP
Experiment: switch fluorescence ratio, 500 uM ATP over buffer (Cy3 cluster intensity, sum of 5 cycles each) (fold (ratio)); higher = stronger signal-on switching upon ATP binding; sequences stand for … in TCGTCGGCAGCGTCAGATGTGTATAAGAGACAGTTTTTTTTTTTTTTTTTTTTTTTTT…TC
Conditions: aptamer strand: ATP DNA aptamer (quencher-CACCTGGGGGAGTATTGCGGAGGAAGG + anchor), 100 nM annealed; ATP concentration: 500 uM
Method in brief: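 Values give the fluorescence ratio for each switch-domain sequence, averaged from per-cluster ratios of summed target-cycle to summed buffer-cycle Cy3 intensity. The Cy3-labelled switching-strand clusters sat on a modified Illumina MiSeq flow-cell, were annealed to 100 nM quencher-labelled ATP aptamer, and were imaged in selection buffer, then after 15 min with 500 uM ATP at 22 °C. Five cycles ran with NaOH stripping and re-annealing between them, and clusters outside 100-1000 RFU were excluded.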
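Note: ATP exposure 15 min at 22 °C before imaging.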

Row | Sequence | switch fluorescence ratio
1 | CCGTAAGAAT | 1.37 ± 0.055
2 | CCGTACGGGG | 1.029 ± 0.0055
3 | CCGTACGTCA | 1.77 ± 0.041
4 | CCGTATATGT | 1.19 ± 0.029
5 | CCGTCAGAGT | 1.09 ± 0.014
6 | CCGTCAGGTT | 1.012 ± 0.005
7 | CCGTCGCTTA | 2.36 ± 0.37
8 | CCGTGAGAAT | 1.07 ± 0.018
9 | CCGTGCCGTT | 0.948 ± 0.024
10 | CCGTGCTTTT | 1.08 ± 0.047
11 | CCGTGGGGAT | 1.24 ± 0.26
12 | CCGTTATTAG | 1.3518 ± 0.0007
13 | CCGTTCAGGG | 1.001 ± 0.0045
14 | CCGTTGAAAT | 1.22 ± 0.011
15 | CCGTTGAGTG | 0.995 ± 0.024
16 | CCGTTGATGT | 1.014 ± 0.002
17 | CCGTTGGATT | 0.983 ± 0.01
18 | CCGTTGGTTT | 0.9937 ± 0.0088
19 | CCGTTGTCCA | 1.02 ± 0.032
20 | CCGTTTGGTT | 0.995 ± 0.064
21 | CCTAAAAGTT | 1.01 ± 0.05
22 | CCTAAAGTTT | 0.983 ± 0.014
23 | CCTAACACGA | 1.11 ± 0.027
24 | CCTAATCAAC | 1.13 ± 0.034
25 | CCTAATTGAA | 0.9728 ± 0.0041
26 | CCTACAGTGA | 1.752 ± 0.015

Row | Sequence | switch fluorescence ratio
27 | CCTACTAGAT | 1.142 ± 0.007
28 | CCTAGCCCTT | 1.05 ± 0.054
29 | CCTAGGTAAA | 0.993 ± 0.034
30 | CCTAGTTAGT | 1.02 ± 0.034
31 | CCTATATACG | 1.13 ± 0.042
32 | CCTATGAATG | 0.987 ± 0.018
33 | CCTATTACA | 1.03 ± 0.026
34 | CCTATTGGGT | 1.02 ± 0.013
35 | CCTATTTATT | 1.01 ± 0.02
36 | CCTCAGCGGA | 3.35 ± 0.42
37 | CCTCATCGAG | 1.07 ± 0.024
38 | CCTCATTCGG | 1.06 ± 0.021
39 | CCTCGATGTA | 1.08 ± 0.027
40 | CCTCGGGAAA | 1.06 ± 0.1
41 | CCTCGGTAGG | 1.02 ± 0.0051
42 | CCTCTAAGTT | 1.27 ± 0.054
43 | CCTCTGGCGC | 3.9 ± 0.3
44 | CCTGAAATAT | 2.53 ± 1.7
45 | CCTGAAGTTG | 1.18 ± 0.21
46 | CCTGAGGAGA | 1.03 ± 0.015
47 | CCTGATTTGA | 0.989 ± 0.02
48 | CCTGCATTTG | 1.0933 ± 0.00019
49 | CCTGCCGTTA | 1.27 ± 0.078
50 | CCTGCTGTTC | 1.51 ± 0.09
51 | CCTGCTTTTT | 1.02 ± 0.021
52 | CCTGGACTCG | 1.02 ± 0.03

Row | Sequence | switch fluorescence ratio
53 | CCTGGAGAGT | 1.02 ± 0.059
54 | CCTGGCCTGC | 1.078 ± 0.01
55 | CCTGGCGATG | 1.38 ± 0.053
56 | CCTGGGAAGA | 1.02 ± 0.017
57 | CCTGGGCGGT | 1.32 ± 0.031
58 | CCTGGGGGCC | 1 ± 0.013
59 | CCTGGGGGG | 1.02 ± 0.045
60 | CCTGGTACGT | 1.01 ± 0.034
61 | CCTGGTCGGC | 1.02 ± 0.035
62 | CCTGGTGGAC | 1.11 ± 0.058
63 | CCTGTATTTT | 1.011 ± 0.0077
64 | CCTGTTATGG | 1.01 ± 0.032
65 | CCTGTTCCGA | 1.19 ± 0.028
66 | CCTGTTTGTT | 0.967 ± 0.038
67 | CCTTAAAAAA | 1.04 ± 0.014
68 | CCTTAGGTAT | 1.011 ± 0.0094
69 | CCTTAGTGAC | 1.36 ± 0.069
70 | CCTTAGTTTT | 0.983 ± 0.022
71 | CCTTATAGTT | 0.995 ± 0.023
72 | CCTTATCCG | 1.07 ± 0.068
73 | CCTTATGCCA | 1.09 ± 0.061
74 | CCTTATTGAA | 0.979 ± 0.021
75 | CCTTCCGTTC | 2.66 ± 0.53
76 | CCTTCCTACG | 2.36 ± 0.54
77 | CCTTCGTTGT | 2.85 ± 0.64
78 | CCTTGAACGG | 0.9606 ± 0.005

Row | Sequence | switch fluorescence ratio
79 | CCTTGAATGG | 1.05 ± 0.005
80 | CCTTGCCGGT | 1.022 ± 0.0094
81 | CCTTGCGGGG | 1.06 ± 0.012
82 | CCTTGCGTTC | 2.68 ± 0.19
83 | CCTTGGGGAT | 1.11 ± 0.12
84 | CCTTGGGGGA | 1.14 ± 0.055
85 | CCTTGGGTTT | 1.08 ± 0.13
86 | CCTTGGTATT | 0.998 ± 0.026
87 | CCTTGTTTGG | 1.01 ± 0.011
88 | CCTTTAATGT | 1.01 ± 0.022
89 | CCTTTCGACA | 2.08 ± 0.26
90 | CCTTTCGGGA | 1.73 ± 0.87
91 | CCTTTCTATT | 0.99 ± 0.018
92 | CCTTTGTATT | 1.04 ± 0.031
93 | CCTTTGTTAT | 1.052 ± 0.0082
94 | CCTTTGTTGG | 1.01 ± 0.013
95 | CCTTTTCAGC | 1.12 ± 0.025
96 | CCTTTTTATG | 1.024 ± 0.0028
97 | CCTTTTTATT | 0.9882 ± 0.0064
98 | CCTTTTTGAA | 0.986 ± 0.049
99 | CGAAAAGGCT | 1.01 ± 0.016
100 | CGAAAAGTTT | 0.994 ± 0.023
101 | CGAAAATGGT | 1.04 ± 0.13
102 | CGAAACAGCA | 1.012 ± 0.0064
103 | CGAAAGATGG | 1 ± 0.034
104 | CGAAAGATGT | 0.9857 ± 0.0025

Row | Sequence | switch fluorescence ratio
105 | CGAAAGGAA | 1.01 ± 0.011
106 | CGAAATGCGG | 0.982 ± 0.036
107 | CGAACCGTCA | 1.08 ± 0.028
108 | CGAACCTGGA | 1.37 ± 0.076
109 | CGAACGGATG | 1.0156 ± 0.00041
110 | CGAACGGATT | 1.06 ± 0.054
111 | CGAACGGTTG | 1.0261 ± 1.1e-05
112 | CGAACGTCAG | 1.04 ± 0.012
113 | CGAACTTGTG | 1.01 ± 0.015
114 | CGAACTTTTG | 0.984 ± 0.018
115 | CGAAGATCGG | 1 ± 0.023
116 | CGAAGCGTCA | 1.081 ± 0.0014
117 | CGAAGGATTG | 0.992 ± 0.015
118 | CGAAGGGAAA | 1.12 ± 0.19
119 | CGAAGGTAGG | 0.9843 ± 0.0049
120 | CGAAGTGGCC | 1.02 ± 0.016
121 | CGAATCGCCT | 1 ± 0.022
122 | CGAATGGCGT | 1.029 ± 0.0063
123 | CGAATTAGAA | 0.982 ± 0.042
124 | CGAATTTTCG | 0.976 ± 0.012
125 | CGACAAGCAG | 1.09 ± 0.026
126 | CGACAATGTA | 1.17 ± 0.018
127 | CGACATCGGA | 1.02 ± 0.017
128 | CGACCGAACA | 1.09 ± 0.014
129 | CGACCGGGGG | 1.11 ± 0.094
130 | CGACGGAAGG | 1.25 ± 0.06

Row | Sequence | switch fluorescence ratio
131 | CGACGGTGAA | 1.09 ± 0.022
132 | CGACGTGAGT | 1.036 ± 0.0042
133 | CGACTCGACG | 1.013 ± 0.006
134 | CGACTGATAT | 1.078 ± 0.0078
135 | CGACTTTTAG | 0.959 ± 0.021
136 | CGAGAATTGT | 0.9301 ± 0.0053
137 | CGAGAGGAGG | 1.01 ± 0.02
138 | CGAGAGGAGT | 0.997 ± 0.014
139 | CGAGAGGGTG | 1.03 ± 0.02
140 | CGAGATCAAG | 0.971 ± 0.013
141 | CGAGATGGTT | 0.973 ± 0.025
142 | CGAGCAGTAG | 3.57 ± 0.31
143 | CGAGCAGTTA | 1.19 ± 0.074
144 | CGAGCCCTTG | 1.027 ± 0.0065
145 | CGAGCCTGGT | 1.02 ± 0.035
146 | CGAGCCTTAA | 1.09 ± 0.035
147 | CGAGCGGGTA | 0.989 ± 0.028
148 | CGAGCTCTCG | 1.002 ± 0.0075
149 | CGAGGATGTG | 0.964 ± 0.035
150 | CGAGGGAATG | 1.1 ± 0.18
151 | CGAGGGAGCA | 1.01 ± 0.025
152 | CGAGGGATCA | 0.9947 ± 0.0011
153 | CGAGGGCGGG | 0.999 ± 0.016
